Columns and labels:
SH-SY5Y [1] = experiment: Serial challenge assay, CAR Ts with different co-stimulatory domains; assay type: cell-based, human; details: for CAR positive T cells percentage: serial SH-SY5Y challenge, FIG. 14B
From the text: To evaluate the persistence of GPC2 CAR T cells, exemplary CAR T cells were selected and tested in the serial challenge assay. Briefly, 4×10^5 SH-SY5Y cells and 1.33×10^5 CART cells transduced with GPC2-BBz, GPC2-CD28z, GPC2-CD27z, GPC2-CD2z, GPC2-ICOSz or GPC2-OX40z lentiviral vectors were co-cultured in 12 well plates using fresh growth medium without IL-2 (E:T ratio=1:3). Cells were harvested after three days co-culture and samples were taken for cell counting using AOPI and T cell quantified by FACs. CAR T cells were replated with fresh SH-SY5Y cells at a 1:2 E:T ratio in growth medium without IL-2 to start the next round of tumor co-culture. Samples were taken for cell counting and T cell quantification at the end of each challenge every three days. GPC2-BBz served as a positive control while the untransduced T cell (UnT) was used as a negative control.

SH-SY5Y [2] = experiment: IFNγ release in co-culture with SH-SY5Y; assay type: cell-based, human; details: for IFNγ release: Example 7, co-culture with SH-SY5Y, FIG. 8D-8F
From the text: (§1) In addition to the cytotoxicity data above, supernatants from the in vitro co-culture assays were also collected to assess CAR T cells-induced cytokine release, e.g., release of interferon gamma (i.e., IFNγ), as another indicator of cytotoxicity, was quantified using a HTRF human IFNγ AlphaLISA kit (Perkin Elmer, #62HIFNGPEH) per manufacturer's instruction. […] No significant cytokine release were detected against GPC2-negative cell line A-431.
(§2) Supernatants from the in vitro co-culture assays were collected to assess CAR T cells-induced cytokine release, e.g., interferon gamma (i.e., IFNγ) release as described in Example 6. […] IFNγ was not induced in GPC2-negative A-431 cells. […] Cytokine release data was consistent with the in vitro cytotoxicity data.

IMR-32 = experiment: IFNγ release in co-culture with IMR-32; assay type: cell-based, human; details: Example 7, co-culture with IMR-32, FIG. 8D-8F
From the text: as §1, §2

[3] = test system: neuroblastoma SH-SY5Y xenograft; assay type: in vivo, NCG mice; details: mouse, in vivo
Procedure: A single dose of untransduced T cells (10×10^6) or CAR T cells (5×10^6) was administered intravenously to tumor engrafted mice 9 days after tumor inoculation (FIG. 9A). […] At the end of obversion, 100% of monovalent CAR T cells (CAS70950VH6-BBz, CAS72669VH6-BBz) and 80% of multi-valent CAR T cells (CAS70950VH6-AS71529VH6-BBz) treated mice were alive (FIG. 9A). At day 42 post treatment, 2/5 mice (40%) treated with CAS72669VH6-BBz expressing CAR T cells were tumor-free and 3/5 mice (60%) treated with CAS70950VH6-AS71529VH6-BBz expressing CAR T cells were tumor-free without recurrence. […] The data highlighted the superiority of VHH-based CAR T cells in tumor regression and protection of mice from disease progression.
Moreover, the expansion and persistence of CAR T cells in vivo are also considered as critical predictors of durable clinical tumor regression in patients with cancer. […] Average 5.00±6.42% of CAR T cells were found in the peripheral blood of NCG mice treated with 5×10^6 CAS70950VH6-AS71529VH6-BBz CAR T cells, whereas less than 1% CAR T cells were detected in CAS70950VH6-BBz, CAS72669VH6-BBz and CAS71529VH6-BBz expressing CAR T groups. Expansion of CAR T cells in the CAS70950VH6-AS71529VH6-BBz group was inversely correlated with tumor size over time.

B1: GPC2-ICOSz: SEQ ID NO:250, GPC2 CAR T comprised ICOS and CD3 ζ intracellular signaling domains (protein)
chain: MALPVTALLLPLALLLHAARPEVQLVESGGGLVQPGGSLRLSCAISEFTYKNTCVGWFRQAPGKGREGVAAIDSDGNTNYVDSVKGRFTISQDNSKNTVYLQMNSLRAEDTAMYYCAAGAYCGRLLLWIGNYAYWGQGTLVTVSSTTTPAPRPPTPAPTIASQPLSLRPEACRPAAGGAVHTRGLDFACDFWLPIGCAAFVVVCILGCILICWLTKKKYSSSVHDPNGEYMFMRAVNTAKKSRLTDVTLRVKFSRSADAPAYKQGQNQLYNELNLGRREEYDVLDKRRGRDPEMGGKPRRKNPQEGLYNELQKDKMAEAYSEIGMKGERRRGKGHDGLYQGLSTATKDTYDALHMQALPPR
modifications: expressed in CAR T cells; GPC2-ICOSz
CAR positive T cells percentage (SH-SY5Y [1]): gradual decline

B2: CAS72052VH5-BBz: humanized VHH anti-GPC2 CAR (4-1BB, CD3ζ), SEQ ID NO: 224; tested as CAR T cells (protein)
chain: MALPVTALLLPLALLLHAARPQVQLVESGGGVVQPGGSLRLSCAVSGFRYASYCMGWFRQAPGKGLEGVAAIHSDGIIRYAESVKGRFTISKDNSKNTLYLQMNSLRAEDTAVYYCAAGAYCGADAILTLYDYAFWGQGTLVTVSSTTTPAPRPPTPAPTIASQPLSLRPEACRPAAGGAVHTRGLDFACDIYIWAPLAGTCGVLLLSLVITLYCKRGRKKLLYIFKQPFMRPVQTTQEEDGCSCRFPEEEEGGCELRVKFSRSADAPAYKQGQNQLYNELNLGRREEYDVLDKRRGRDPEMGGKPRRKNPQEGLYNELQKDKMAEAYSEIGMKGERRRGKGHDGLYQGLSTATKDTYDALHMQALPPR
modifications: expressed in CAR T cells; CAS72052VH5-BBz
IFNγ release (SH-SY5Y [2]): high levels of IFNγ | IFNγ release (IMR-32): high levels of IFNγ

B3: GPC2-CD27z: SEQ ID NO: 249, GPC2 CAR T comprised CD27 and CD3 ζ intracellular signaling domains (protein)
chain: MALPVTALLLPLALLLHAARPEVQLVESGGGLVQPGGSLRLSCAISEFTYKNTCVGWFRQAPGKGREGVAAIDSDGNTNYVDSVKGRFTISQDNSKNTVYLQMNSLRAEDTAMYYCAAGAYCGRLLLWIGNYAYWGQGTLVTVSSTTTPAPRPPTPAPTIASQPLSLRPEACRPAAGGAVHTRGLDFACDILVIFSGMFLVFTLAGALFLHQRRKYRSNKGESPVEPAEPCHYSCPREEEGSTIPIQEDYRKPEPACSPRVKFSRSADAPAYKQGQNQLYNELNLGRREEYDVLDKRRGRDPEMGGKPRRKNPQEGLYNELQKDKMAEAYSEIGMKGERRRGKGHDGLYQGLSTATKDTYDALHMQALPPR
modifications: expressed in CAR T cells; GPC2-CD27z
CAR positive T cells percentage (SH-SY5Y [1]): gradual decline

B4: GPC2-CD2z: SEQ ID NO:251, GPC2 CAR T comprised CD2 and CD3 ζ intracellular signaling domains (protein)
chain: MALPVTALLLPLALLLHAARPEVQLVESGGGLVQPGGSLRLSCAISEFTYKNTCVGWFRQAPGKGREGVAAIDSDGNTNYVDSVKGRFTISQDNSKNTVYLQMNSLRAEDTAMYYCAAGAYCGRLLLWIGNYAYWGQGTLVTVSSTTTPAPRPPTPAPTIASQPLSLRPEACRPAAGGAVHTRGLDFACDIYLIIGICGGGSLLMVFVALLVFYITKRKKQRSRRNDEELETRAHRVATEERGRKPHQIPASTPQNPATSQHPPPPPGHRSQAPSHRPPPPGHRVQHQPQKRPPAPSGTQVHQQKGPPLPRPRVQPKPPHGAAENSLSPSSNRVKFSRSADAPAYKQGQNQLYNELNLGRREEYDVLDKRRGRDPEMGGKPRRKNPQEGLYNELQKDKMAEAYSEIGMKGERRRGKGHDGLYQGLSTATKDTYDALHMQALPPR
modifications: expressed in CAR T cells; GPC2-CD2z
CAR positive T cells percentage (SH-SY5Y [1]): gradual decline

B5: CAS71529VH6-BBz: humanized VHH anti-GPC2 CAR (4-1BB, CD3ζ), SEQ ID NO: 223; tested as CAR T cells (protein)
chain: MALPVTALLLPLALLLHAARPEVQLVESGGGLVQPGGSLRLSCAVSEYRYSSRYCMGWFRQAPGKGREGVAAIDSNGSADYVDSVKGRFTISKDNSKNTLYLQMNSLRAEDTAMYYCAADHLAYDCYSGATSVFRYWGQGTLVTVSSTTTPAPRPPTPAPTIASQPLSLRPEACRPAAGGAVHTRGLDFACDIYIWAPLAGTCGVLLLSLVITLYCKRGRKKLLYIFKQPFMRPVQTTQEEDGCSCRFPEEEEGGCELRVKFSRSADAPAYKQGQNQLYNELNLGRREEYDVLDKRRGRDPEMGGKPRRKNPQEGLYNELQKDKMAEAYSEIGMKGERRRGKGHDGLYQGLSTATKDTYDALHMQALPPR
modifications: expressed in CAR T cells; CAS71529VH6-BBz
IFNγ release (SH-SY5Y [2]): high levels of IFNγ | IFNγ release (IMR-32): high levels of IFNγ | percentage of CAR T cells in peripheral blood [3]: less than 1%

B6: GPC2-OX40z: SEQ ID NO:252, GPC2 CAR T comprised OX40 and CD3 ζ intracellular signaling domains (protein)
chain: MALPVTALLLPLALLLHAARPEVQLVESGGGLVQPGGSLRLSCAISEFTYKNTCVGWFRQAPGKGREGVAAIDSDGNTNYVDSVKGRFTISQDNSKNTVYLQMNSLRAEDTAMYYCAAGAYCGRLLLWIGNYAYWGQGTLVTVSSTTTPAPRPPTPAPTIASQPLSLRPEACRPAAGGAVHTRGLDFACDVAAILGLGLVLGLLGPLAILLALYLLRRDQRLPPDAHKPPGGGSFRTPIQEEQADAHSTLAKIRVKFSRSADAPAYKQGQNQLYNELNLGRREEYDVLDKRRGRDPEMGGKPRRKNPQEGLYNELQKDKMAEAYSEIGMKGERRRGKGHDGLYQGLSTATKDTYDALHMQALPPR
modifications: expressed in CAR T cells; GPC2-OX40z
CAR positive T cells percentage (SH-SY5Y [1]): gradual decline

B7: GPC2-CD28z: SEQ ID NO: 248, GPC2 CAR T comprised CD28 and CD3 ζ intracellular signaling domains (protein)
chain: MALPVTALLLPLALLLHAARPEVQLVESGGGLVQPGGSLRLSCAISEFTYKNTCVGWFRQAPGKGREGVAAIDSDGNTNYVDSVKGRFTISQDNSKNTVYLQMNSLRAEDTAMYYCAAGAYCGRLLLWIGNYAYWGQGTLVTVSSIEVMYPPPYLDNEKSNGTIIHVKGKHLCPSPLFPGPSKPFWVLVVVGGVLACYSLLVTVAFIIFWVRSKRSRLLHSDYMNMTPRRPGPTRKHYQPYAPPRDFAAYRSRVKFSRSADAPAYKQGQNQLYNELNLGRREEYDVLDKRRGRDPEMGGKPRRKNPQEGLYNELQKDKMAEAYSEIGMKGERRRGKGHDGLYQGLSTATKDTYDALHMQALPPR
modifications: expressed in CAR T cells; GPC2-CD28z
IFNγ production against SH-SY5Y (SH-SY5Y [2]; GPC2 CAR Ts with different co-stimulatory domains, FIG. 13B): higher level of IFNγ production | long term persistence and CAR T cells expansion (SH-SY5Y [1]; serial SH-SY5Y challenge without IL-2, FIG. 14A and 14C): comparable level of long term persistence and CAR T cells expansion | CAR positive T cells percentage (SH-SY5Y [1]): expanded and reaching a peak level
